The values below are quoted from earlier work in PMC3037977.

Where two headings read alike, the source gives them in different places.

The Kd is a measure of binding affinity in units of concentration.

Series [1] has as its target importin β (Homo sapiens) (UniProt Q14974).
Series [2] has the same target. The source holds these as a separate data set.

Chain of importin β (Homo sapiens) (Q14974 whole entry): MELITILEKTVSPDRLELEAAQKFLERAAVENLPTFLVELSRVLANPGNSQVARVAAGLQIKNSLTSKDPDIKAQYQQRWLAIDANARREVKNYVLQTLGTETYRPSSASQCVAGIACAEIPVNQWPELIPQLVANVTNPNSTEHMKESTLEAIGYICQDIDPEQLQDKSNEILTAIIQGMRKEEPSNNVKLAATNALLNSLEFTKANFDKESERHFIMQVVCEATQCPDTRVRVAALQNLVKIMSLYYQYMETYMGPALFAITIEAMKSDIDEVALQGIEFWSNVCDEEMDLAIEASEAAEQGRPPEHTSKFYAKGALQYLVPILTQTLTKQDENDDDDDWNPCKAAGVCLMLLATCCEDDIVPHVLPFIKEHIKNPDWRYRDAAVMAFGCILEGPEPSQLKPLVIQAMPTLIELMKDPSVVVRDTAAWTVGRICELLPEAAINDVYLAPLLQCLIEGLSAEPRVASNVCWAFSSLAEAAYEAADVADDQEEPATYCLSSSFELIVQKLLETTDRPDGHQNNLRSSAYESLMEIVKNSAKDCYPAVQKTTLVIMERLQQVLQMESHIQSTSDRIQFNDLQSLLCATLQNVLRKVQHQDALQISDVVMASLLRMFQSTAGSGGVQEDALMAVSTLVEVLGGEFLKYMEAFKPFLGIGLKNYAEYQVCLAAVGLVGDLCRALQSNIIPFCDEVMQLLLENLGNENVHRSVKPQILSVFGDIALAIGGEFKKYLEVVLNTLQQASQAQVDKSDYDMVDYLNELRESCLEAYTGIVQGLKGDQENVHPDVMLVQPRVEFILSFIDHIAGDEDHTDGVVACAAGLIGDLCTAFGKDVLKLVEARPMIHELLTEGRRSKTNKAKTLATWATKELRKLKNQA
Chain of snurportin IBB domain (O95149 8-76): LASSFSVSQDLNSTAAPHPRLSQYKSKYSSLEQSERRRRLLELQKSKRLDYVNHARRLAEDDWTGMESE

On to “importin α1 IBB domain (from UniProt P52292)”, for which, in series [1], the Kd was 2 nM.
As for “snurportin IBB domain (from UniProt O95149)”, the Kd in series [2] was 2 nM.
